Assay results reported in US20150374741A1, “METHODS FOR MAINTAINING POPULATION OF THERAPEUTIC CELLS IN TREATMENT SITE OF SUBJECT IN NEED OF CELL THERAPY” (DCB-USA LLC, priority 2013, published 2015).

Experiment: In vivo HA degradation tracked by Alexa Fluor 700 fluorescent signal (IVIS) in ischemic hindlimb
Set-up: species or system mice
Settings: streptavidin alone injected into the hindlimb
Description: Biotinylated HA was suspended in deionized water overnight, and Alexa Fluor 700-conjugated streptavidin (Invitrogen, Grand Island, N.Y., USA) was prepared according to the manufacturer's instructions. The streptavidin and biotinylated HA were then mixed and gently agitated at 4° C. This mixture was filtered through Amicon centrifugal filter units (molecular-weight cut off 100 kDa; Millipore, Billerica, Mass., USA) to exclude extra streptavidin. The final products were freeze-dried and stored at 4° C.
hMSCs were cultured on 10-cm culture dishes and maintained at 37° C. under an atmosphere of 5% CO2 in air. A total of 4×10^6 hMSCs were mixed with 200 μl of αMEM culture medium or 1% HA and then injected into the ischemic muscles of mice. Immediately and at various intervals after the injection, the mice were imaged using a Xenogen IVIS® Spectrum device and the corresponding filter sets. The fluorescent intensity was determined by calculating the number of photons within the manually drawn ROI, and the intensity was adjusted to exclude tissue autofluorescence. […]

## Alexa Fluor 700 labeled streptavidin: Alexa Fluor 700-conjugated streptavidin (Invitrogen), injected alone as label control
  time until fluorescence disappeared: ≤ 12 h
